Source: patent US7041806

Legend:
[1] = molecular target: UNC5H-1 (rat homologue of UNC-5) (rat) (UniProt O08721); experiment: equilibrium binding, curves fitted to the Hill equation
[2] = molecular target: UNC5H-2 (rat homologue of UNC-5) (rat) (UniProt O08722); experiment: as above

UniProt O08721, sequence (O08721 26-898 limits assumed, form in doubt): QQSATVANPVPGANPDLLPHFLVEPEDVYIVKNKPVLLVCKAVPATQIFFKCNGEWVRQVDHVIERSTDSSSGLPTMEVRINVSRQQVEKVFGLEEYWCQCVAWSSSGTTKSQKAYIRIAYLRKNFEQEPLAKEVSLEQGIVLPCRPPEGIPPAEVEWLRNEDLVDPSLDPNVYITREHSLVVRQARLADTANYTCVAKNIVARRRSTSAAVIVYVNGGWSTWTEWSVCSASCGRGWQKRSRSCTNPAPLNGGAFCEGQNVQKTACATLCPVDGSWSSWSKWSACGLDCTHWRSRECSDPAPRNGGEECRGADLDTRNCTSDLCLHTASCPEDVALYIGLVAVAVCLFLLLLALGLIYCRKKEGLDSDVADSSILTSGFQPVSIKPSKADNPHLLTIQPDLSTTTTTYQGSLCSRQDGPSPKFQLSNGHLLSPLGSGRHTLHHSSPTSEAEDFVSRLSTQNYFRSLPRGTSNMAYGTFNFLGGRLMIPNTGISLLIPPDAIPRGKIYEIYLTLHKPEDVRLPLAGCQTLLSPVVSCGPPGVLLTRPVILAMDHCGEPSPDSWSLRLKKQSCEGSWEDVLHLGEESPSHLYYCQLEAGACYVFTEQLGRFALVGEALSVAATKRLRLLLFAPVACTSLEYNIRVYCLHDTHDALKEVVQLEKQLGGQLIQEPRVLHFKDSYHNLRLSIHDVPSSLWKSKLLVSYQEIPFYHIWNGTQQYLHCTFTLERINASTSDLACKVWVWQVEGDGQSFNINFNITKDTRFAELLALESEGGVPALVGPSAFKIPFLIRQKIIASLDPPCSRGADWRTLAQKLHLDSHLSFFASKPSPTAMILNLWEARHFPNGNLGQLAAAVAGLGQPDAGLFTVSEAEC

Kd [1]: 19 nM | Kd [2]: 3.4 nM
Substance: netrin(VIoV)-Fc (Fc fusion)
